{"source": "paper PMC5785730", "about": "“Assays of D-Amino Acid Oxidase Activity” (Frontiers in Molecular Biosciences, 2018)", "settings_in_all_cases": "FAD", "key": {"purified protein [1]": {"substrate": "C[C@@H](N)C(=O)O", "experiment": "purified protein"}, "purified protein [2]": {"substrate": "N[C@H](CCC(=O)O)C(=O)O", "experiment": "purified protein"}, "[3]": {"substrate": "NCCCC[C@@H](N)C(=O)O", "experiment": "steady-state kinetics, oxygen consumption assay (Km)", "assay_type": "biochemical, Rhodotorula toruloides"}}}
{"protein": "RgDAAO (D-amino acid oxidase from Rhodotorula gracilis) (Rhodotorula toruloides) (protein, recombinant wild-type RgDAAO) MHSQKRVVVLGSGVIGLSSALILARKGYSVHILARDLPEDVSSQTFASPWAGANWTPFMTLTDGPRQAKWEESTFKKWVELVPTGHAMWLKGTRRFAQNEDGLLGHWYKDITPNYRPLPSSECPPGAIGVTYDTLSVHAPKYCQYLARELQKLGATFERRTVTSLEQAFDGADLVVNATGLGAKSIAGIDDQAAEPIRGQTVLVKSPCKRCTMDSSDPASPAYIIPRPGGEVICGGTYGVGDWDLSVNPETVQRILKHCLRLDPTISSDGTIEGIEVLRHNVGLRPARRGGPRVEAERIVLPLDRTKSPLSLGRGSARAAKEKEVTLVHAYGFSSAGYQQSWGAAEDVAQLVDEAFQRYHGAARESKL", "values": [{"measurement": "Km", "setting": "purified protein [1]", "value": "1.3 ± 0.2", "unit": "mM"}, {"measurement": "Vmax", "setting": "purified protein [1]", "value": 100, "unit": "µmol/min/mg"}, {"measurement": "Km", "setting": "purified protein [2]", "value": "76.4 ± 6.4", "unit": "mM"}, {"measurement": "Vmax", "setting": "purified protein [2]", "value": 1.7, "unit": "µmol/min/mg"}, {"measurement": "Km", "setting": "[3]", "value": "14.6 ± 1.4", "unit": "mM"}, {"measurement": "Vmax", "setting": "[3]", "value": 16.4, "unit": "µmol/min/mg"}]}
